Source: publication PMC13649775 (Nature Communications, 2026)
Where no end group is shown, it is not given here.

T1: LigIV DBD (Met1-Ile240) (UniProt P49917 1-240)
T1 construct: source: E. coli Rosetta2 (DE3), purified (Ni-NTA, TEV, SEC); not shown: His tag, N-terminal, cleaved
T1 sequence (looked up): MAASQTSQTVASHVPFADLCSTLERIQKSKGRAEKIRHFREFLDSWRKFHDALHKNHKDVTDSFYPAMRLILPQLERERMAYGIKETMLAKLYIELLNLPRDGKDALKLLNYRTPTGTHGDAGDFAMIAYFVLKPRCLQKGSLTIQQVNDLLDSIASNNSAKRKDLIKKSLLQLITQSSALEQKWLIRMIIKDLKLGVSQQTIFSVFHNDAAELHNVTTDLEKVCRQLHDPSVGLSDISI


Target: T1, LigIV DBD (Met1-Ile240)
Test: fluorescence polarisation; 25 nM FAM-labeled peptide constant, LigIV DBD 5 nM–200 μM; 15 mM Tris pH 7.5, 65 mM NaCl, 0.7 mM βME; 20 min
Conditions: both partners purified

Kd | Binder
29 to 30 µM | {FAM}-MSGWESYYKTE (Ku70, residues 1-11; The results call the modelled stretch 'Ku70 CTR', but the peptide is residues 1-11; also called Ku70 peptide; source: synthetic peptide (GenScript)) [FAM-labeled Ku70 1-11 peptide]
1.5 to 4 µM | {FAM}-VPQWEVFFKRN (Artemis, residues 486-496; also called Artemis peptide; source: synthetic peptide (GenScript)) [FAM-labeled Artemis 486-496 peptide]
